The text below walks through data of US20210040201A1 (Innovent, published 2021).

What is called EC50 is the midpoint of the concentration-response curve. The IC50 is the concentration that gives 50% inhibition. Higher therefore signals weaker potency in that assay.

Test [1] concerns the target T1, Human TIGIT expressed on the surface of cells (human, UniProt Q495A1 22-244).
T1 sequence: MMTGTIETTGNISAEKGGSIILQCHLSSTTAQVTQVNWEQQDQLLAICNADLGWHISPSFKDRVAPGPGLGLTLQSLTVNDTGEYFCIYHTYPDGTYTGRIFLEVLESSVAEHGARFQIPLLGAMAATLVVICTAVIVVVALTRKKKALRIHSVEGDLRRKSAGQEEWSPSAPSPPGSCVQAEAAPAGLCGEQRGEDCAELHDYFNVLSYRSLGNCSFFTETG
Briefly: cell-based or functional assay.

Test [2] addresses T1, Human TIGIT expressed on the surface of …. Briefly: cell-based or functional assay. This is another data set of the same source.
In test [3] the target is T2, Mouse TIGIT-his (ACRO, TIT-M52E6) (mouse, UniProt P86176 26-143, limits assumed).
T2 construct: Bought protein
T2 sequence (looked up): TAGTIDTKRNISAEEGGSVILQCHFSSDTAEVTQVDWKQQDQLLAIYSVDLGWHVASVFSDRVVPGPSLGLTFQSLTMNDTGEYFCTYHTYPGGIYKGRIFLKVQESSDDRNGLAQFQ
Briefly: BLI (ForteBio), CHO-expressed antibody loaded on AHQ sensor. (In general: BLI is a label-free optical method that tracks binding on a fibre tip over time.)
Experimental: The sensor with loaded antibodies was exposed to 100 nM TIGIT-his antigens until to a plateau, and then transferred to an assay buffer for dissociation for at least 2 min to measure the dissociation rate. Kinetic analysis was performed using a 1:1 binding model.

For test [4], the target named is T1, Human TIGIT expressed on the surface of …. Briefly: flow cytometry on CHO cells overexpressing human TIGIT; reference antibody in the run with CHO-expressed antibodies.
Test [5] shares this target. The test can be described thus: flow cytometry competition against 50 nM human CD155-mouse IgG2a Fc on CHOS cells expressing human TIGIT; positive control. Background: In flow cytometry, cells or beads pass a laser one at a time.
For test [6] the target is unchanged. Described as above. This is another data set of the same source.
Test [7] has the same target. Briefly: flow cytometry on CHOS cells expressing human TIGIT; reference antibody.

Read-outs that look alike come from different tables or passages of the source.

B1: ADI-27238 (antibody, human IgG4 S228P, kappa, F234A L235A, V domains shown)
VH: QVQLVQSGAEVKKPGASVKVSCKASGYTFTSYYMSWVRQAPGQGLEWMGIINPSGGSTSYAQKFQGRVTMTRDTSTSTVYMELSSLRSEDTAVYYCARARYPSSWPYGMDVWGQGTTVTVSS
VL: DIQMTQSPSSLSASVGDRVTITCRASQSINSYLNWYQQKPGKAPKLLIYAASSLQSGVPSRFSGSGSGTDFTLTISSLQPEDFATYYCQQSLLTPFTFGGGTKVEIKR
On to B1, for which the “EC50, MOA-based assay (luciferase reporter under IL2 promoter), yeast-expressed antibody” value (from here on “EC50, MOA-based assay … yeast-expressed antibody”) in test [1] stood at 68.7 nM.

B2: ADI-30268 (antibody, human IgG4 S228P, kappa, F234A L235A, V domains shown)
VH: QVQLVQSGAEVKKPGASVKVSCKASGYTFGSYYMGWVRQAPGQGLEWMGIIDPSGGRTSYARKFQGRVTMTRDTSTSTVYMELSSLRSEDTAVYYCARARTPSSWPYGMDVWGQGTTVTVSS
VL: DIQMTQSPSSLSASVGDRVTITCRASQSINSYLNWYQQKPGKAPKLLIYAASSLQSGVPSRFSGSGSGTDFTLTISSLQPEDFATYYCQQSLLTPFTFGGGTKVEIKR
As for B2, the “EC50, MOA-based assay (luciferase reporter under IL2 promoter), CHO-expressed antibody” value (“EC50, MOA-based assay … CHO-expressed antibody” below) in test [2] amounted to 0.506 nM. Further, the “EC50, MOA-based assay … yeast-expressed antibody” value in test [1] was 1.22 nM.

B3: ADI-30267 (antibody, human IgG4 S228P, kappa, F234A L235A, V domains shown)
VH: QVQLVQSGAEVKKPGASVKVSCKASGYTFRSYYMSWVRQAPGQGLEWMGIIDPSGGRTSFAQKFQGRVTMTRDTSTSTVYMELSSLRSEDTAVYYCARARYPESWPYGMDVWGQGTTVTVSS
VL: DIQMTQSPSSLSASVGDRVTITCRASQSINSYLNWYQQKPGKAPKLLIYAASSLQSGVPSRFSGSGSGTDFTLTISSLQPEDFATYYCQQSLLTPFTFGGGTKVEIKR
Consider B3, for which, in test [1], the “EC50, MOA-based assay … yeast-expressed antibody” value came to 2.06 nM.

B4: ADI-27243 (antibody, human IgG4 S228P, kappa, F234A L235A, V domains shown)
VH: QLQLQESGPGLVKPSETLSLTCTVSGGSISSSRYYWGWIRQPPGKGLEWIGSIYYSGSTYYNPSLKSRVTISVDTSKNQFSLKLSSVTAADTAVYYCARDGLYHTPEYFQHWGQGTLVTVSS
VL: EIVLTQSPATLSLSPGERATLSCRASQSVSSYLAWYQQKPGQAPRLLIYDASNRATGIPARFSGSGSGTDFTLTISSLEPEDFAVYYCQQRFAFPYTFGGGTKVEIKR
As for B4, the “EC50, MOA-based assay … yeast-expressed antibody” value in test [1] came out at 297 nM.

B5: ADI-30336 (antibody, human IgG4 S228P, kappa, F234A L235A, V domains shown)
VH: QLQLQESGPGLVKPSETLSLTCTVSGGSISSSRYYWGWIRQPPGKGLEWIGSIYYSGSTYYNPSLKSRVTISVDTSKNQFSLKLSSVTAADTAVYYCARDGLYHTPEYFQHWGQGTLVTVSS
VL: EIVLTQSPATLSLSPGERATLSCRASQSVSSYLAWYQQKPGQAPRLLIYDASNRATGIPARFSGSGSGTDFTLTISSLEPEDFAVYYCQQRFAHPYTFGGGTKVEIKR
notes: Intact antibody, expressed in yeast and also in CHO cells (the assay field says which)
On to B5, for which the “EC50, MOA-based assay … CHO-expressed antibody” value in test [2] came out at 1.27 nM. Further, the binding result in test [3] was “no binding (tested: 100 nM TIGIT-his)”. Also, the “EC50, MOA-based assay … yeast-expressed antibody” value in test [1] came to 3.33 nM.

B6: ADI-30302 (antibody, human IgG4 S228P, kappa, F234A L235A, V domains shown)
VH: QLQLQESGPGLVKPSETLSLTCTVSGGSIGSSQYYWGWIRQPPGKGLEWIGSIYRSGGTYYNPSLKSRVTISVDTSKNQFSLKLSSVTAADTAVYYCARDGLYHTPEYFQHWGQGTLVTVSS
VL: EIVLTQSPATLSLSPGERATLSCRASQSVSSYLAWYQQKPGQAPRLLIYDASNRATGIPARFSGSGSGTDFTLTISSLEPEDFAVYYCQQRFAFPYTFGGGTKVEIKR
For B6, the “EC50, MOA-based assay … yeast-expressed antibody” value in test [1] is 0.983 nM.

B7: ADI-30272 (antibody, human IgG4 S228P, kappa, F234A L235A, V domains shown)
VH: QVQLVQSGAEVKKPGASVKVSCKASGYTFTEYYMHWVRQAPGQGLEWMGIISPSAGSTSYAQKFQGRVTMTRDTSTSTVYMELSSLRSEDTAVYYCARDHDIAAAGRLADYWGQGTLVTVSS
VL: DIQMTQSPSSVSASVGDRVTITCRASQGISSWLAWYQQKPGKAPKLLISAASSLQSGVPSRFSGSGSGTDFTLTISSLQPEDFATYYCQQAVILPITFGGGTKVEIKR
Turning to B7, the “EC50, MOA-based assay … yeast-expressed antibody” value in test [1] was 1.49 nM.

B8: ADI-27297 (antibody, human IgG4 S228P, kappa, F234A L235A, V domains shown)
VH: QVQLVQSGAEVKKPGASVKVSCKASGYTFTSYYMHWVRQAPGQGLEWMGIINPSGGSTSYAQKFQGRVTMTRDTSTSTVYMELSSLRSEDTAVYYCARDHDIAAAGRLADYWGQGTLVTVSS
VL: DIQMTQSPSSVSASVGDRVTITCRASQGISSWLAWYQQKPGKAPKLLISAASSLQSGVPSRFSGSGSGTDFTLTISSLQPEDFATYYCQQAVILPITFGGGTKVEIKR
Regarding B8, in test [1], the “EC50, MOA-based assay … yeast-expressed antibody” value is roughly 25100 nM.

B9: ADI-30278 (antibody, human IgG4 S228P, kappa, F234A L235A, V domains shown)
VH: QVQLVQSGAEVKKPGASVKVSCKASGYTFTEYYMHWVRQAPGQGLEWMGIISPSAGSTKYAQKFQGRVTMTRDTSTSTVYMELSSLRSEDTAVYYCARDHDIRLAGRLADYWGQGTLVTVSS
VL: DIQMTQSPSSVSASVGDRVTITCRASQGISSWLAWYQQKPGKAPKLLISAASSLQSGVPSRFSGSGSGTDFTLTISSLQPEDFATYYCQQAVILPITFGGGTKVEIKR
notes: as for B5
For the molecule B9, the “EC50, MOA-based assay … CHO-expressed antibody” value in test [2] was 0.186 nM. Further, the binding result in test [3] is given as “no binding (tested: 100 nM TIGIT-his)”. The “EC50, MOA-based assay … yeast-expressed antibody” value in test [1] is 0.523 nM.

B10: ADI-30293 (antibody, human IgG4 S228P, kappa, F234A L235A, V domains shown)
VH: EVQLVESGGGLVQPGGSLRLSCAASGFTFSSYSMNWVRQAPGKGLEWVSYISSSGTINYADSVKGRFTISRDNAKNSLYLQMNSLRAEDTAVYYCARHRIADSPSRAFDIWGQGTMVTVSS
VL: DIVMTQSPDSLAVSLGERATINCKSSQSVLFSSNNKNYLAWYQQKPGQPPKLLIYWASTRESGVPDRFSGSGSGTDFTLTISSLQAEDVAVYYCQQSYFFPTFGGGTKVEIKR
As to B10, in test [2], the “EC50, MOA-based assay … CHO-expressed antibody” value was determined as 1.62 nM. Also, the “EC50, MOA-based assay … yeast-expressed antibody” value in test [1] stood at 1.56 nM.

B11: ADI-30296 (antibody, human IgG4 S228P, kappa, F234A L235A, V domains shown)
VH: EVQLVESGGGLVQPGGSLRLSCAASGFTIGGYSMNWVRQAPGKGLEWVSYISSSSTIHYADSVKGRFTISRDNAKNSLYLQMNSLRAEDTAVYYCARHRIGRSPSRAFDIWGQGTMVTVSS
VL: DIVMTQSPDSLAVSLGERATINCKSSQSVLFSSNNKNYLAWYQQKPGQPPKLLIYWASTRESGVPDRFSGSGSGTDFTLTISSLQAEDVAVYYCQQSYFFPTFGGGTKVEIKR
As for B11, in test [1], the “EC50, MOA-based assay … yeast-expressed antibody” value amounted to 1.09 nM.

B12: ADI-30286 (antibody, human IgG4 S228P, kappa, F234A L235A, V domains shown)
VH: EVQLLESGGGLVQPGGSLRLSCAASGFTFGPYGMSWVRQAPGKGLEWVSAISGSGASTWYADSVKGRFTISRDNSKNTLYLQMNSLRAEDTAVYYCAKDPGTHYSGYYYIWRYWGQGTLVTVSS
VL: EIVMTQSPATLSVSPGERATLSCRASQSVSSNLAWYQQKPGQAPRLLIYSASTRATGIPARFSGSGSGTEFTLTISSLQSEDFAVYYCQQYVPHPPFTFGGGTKVEIKR
For the molecule B12, the “EC50, MOA-based assay … CHO-expressed antibody” value in test [2] amounted to 0.396 nM.

B13: ADI-30288 (antibody, human IgG4 S228P, kappa, F234A L235A, V domains shown)
VH: EVQLLESGGGLVQPGGSLRLSCAASGFTFGPYGMSWVRQAPGKGLEWVSAISGSGASTWHADSVKGRFTISRDNSKNTLYLQMNSLRAEDTAVYYCAKDPGTDSTGYYYIWRYWGQGTLVTVSS
VL: EIVMTQSPATLSVSPGERATLSCRASQSVSSNLAWYQQKPGQAPRLLIYSASTRATGIPARFSGSGSGTEFTLTISSLQSEDFAVYYCQQYVPHPPFTFGGGTKVEIKR
With B13, the “EC50, MOA-based assay … CHO-expressed antibody” value in test [2] stood at 0.384 nM.

B14: ADI-30306 (antibody, human IgG4 S228P, kappa, F234A L235A, V domains shown)
VH: QLQLQESGPGLVKPSETLSLTCTVSGGSISSSLYYWGWIRQPPGKGLEWIGSIYYSGSTFYNPSFKSRVTISVDTSKNQFSLKLSSVTAADTAVYYCAREAGRGTTGLLFDYWGQGTLVTVSS
VL: DIQMTQSPSTLSASVGDRVTITCRASQSISSWLAWYQQKPGKAPKLLIYKASSLESGVPSRFSGSGSGTEFTLTISSLQPDDFATYYCQQYGILPRTFGGGTKVEIKR
notes: as for B5
For the molecule B14, the binding result in test [3] is given as “no binding (tested: 100 nM TIGIT-his)”.

B15: ADI-30311 (antibody, human IgG4 S228P, kappa, F234A L235A, V domains shown)
VH: QLQLQESGPGLVKPSETLSLTCTVSGGSIASSVYYWGWIRQPPGKGLEWIGSIYYSGSTWYNPSLKSRVTISVDTSKNQFSLKLSSVTAADTAVYYCAREAGRTGTGLLFDYWGQGTLVTVSS
VL: DIQMTQSPSTLSASVGDRVTITCRASQSISSWLAWYQQKPGKAPKLLIYKASSLESGVPSRFSGSGSGTEFTLTISSLQPDDFATYYCQQYGILPRTFGGGTKVEIKR
In the case of B15, the “EC50, MOA-based assay … yeast-expressed antibody” value in test [1] turned out to be 1.82 nM.

B16: 10A7 (anti-human TIGIT reference antibody from Genentech) (antibody, V domains shown)
VH: EVQLVESGGGLTQPGKSLKLSCEASGFTFSSFTMHWVRQSPGKGLEWVAFIRSGSGIVFYADAVRGRFTISRDNAKNLLFLQMNDLKSEDTAMYYCARRPLGHNTFDSWGQGTLVTVSS
VL: DIVMTQSPSSLAVSPGEKVTMTCKSSQSLYYSGVKENLLAWYQQKPGQSPKLLIYYASIRFTGVPDRFTGSGSGTDYTLTITSVQAEDMGQYFCQQGINNPLTFGDGTKLEIKR
In the case of B16, the EC50 was 0.195 nM in test [4] and 0.269 nM in test [7]. Further, the IC50 amounted to 0.325 nM in test [5] and 0.741 nM in test [6]. Moreover, in test [1], the “EC50, MOA-based assay (luciferase reporter under IL2 promoter)” value is roughly 77.8 nM.
